This series has as its system MS2 coat protein. In words: apparent KD of MS2 coat protein; designed switch direction (-1 OFF switch, 1 ON switch): -1; higher = weaker reporter binding. Summed up: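 Apparent KD, taken as the median over clusters for each design, was obtained by curve-fitting normalised cluster fluorescence. Designed RNA switches had been transcribed on Illumina chips by stalled E. coli RNA polymerase and titrated with SNAP-549-labelled MS2 coat protein, doubling from 0.7 or 1.5 nM to 3 µM.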

[1] abbreviates: input ligand: microRNA oligo, concentration not stated.
Where [2] appears, read: Eterna round: R95, input ligand: microRNA oligo, concentration not stated.
Setting [3] is: Eterna round: R95, input ligand: FMN 200 uM.
Where [4] appears, read: Eterna round: R95, input ligand: none.

With “CGAUGCUCGAAUCCACAUGAGGAUCACCCAUGUCGAGUUAGCGAGGAUAUCGGUGACACAUAGUAUGAGAAGGCGCGAACCUGA [Ex NG3 #24] (Eterna round: R96, puzzle: Exclusion NG 3)”, the “apparent KD of MS2 coat protein” value stood at 103 nM (input ligand: FMN 200 uM), 28 nM under setting [1] and 41.7 nM (input ligand: none).

Take “CGAUGUUAUGUCAGGAUAUGCGUUGCGAAAGCAAUGUAGAAGGGACAUGAGGAUCACCCAUGUGCUAACCAUCG [Omei A 10] (puzzle: Brourd's mod of Exclusion 4)”: the “apparent KD of MS2 coat protein” value under setting [2] is 17.2 nM.

“CGCAAAACCGUAAGGAUAUCCUUUCCGAAAGGGACGGAGAAGGUACAUGAGGAUCACCCAUGUCCUCCGAGCUG [Eternabot (Original) Solution 18] (Eterna round: R97, puzzle: Brourd's mod of Exclusion 4)”: the “apparent KD of MS2 coat protein” value was 20.6 nM (input ligand: FMN 200 uM) and 18 nM (input ligand: none).

Consider “CGCAUGUGAGGAUAUUAGUAGUAGUCAGAAAAGACUAUUACUGAGAAGGUACAUGAGGAUCACCCAUGUAUCCG [Mat - Exclusion 4 - Eli Mod - D46] (Eterna round: R97, puzzle: Exclusion 4)”, for which the “apparent KD of MS2 coat protein” value reads like this: (input ligand: FMN 200 uM) 25.7 nM; (input ligand: none) 13.9 nM.

Consider “CGCCGAGUGUUAGGAUAUUACAAGCAUAAGCGGUAAGAAGGAACAUGAGGAUCACCCAUGUACUGUCCCAUCGGGACAGGUUUC [Qule] (Eterna round: R96, puzzle: Exclusion NG 1)”, for which the “apparent KD of MS2 coat protein” value (input ligand: FMN 200 uM) came out at 292 nM, the “apparent KD of MS2 coat protein” value under setting [1] turned out to be 44.3 nM and the “apparent KD of MS2 coat protein” value (input ligand: none) was 76.8 nM.

For “CGCUAUGCCGAGGAUAUUCUUGGUAUGCAUCUAGGAGAAGGCGGCACAUGAGGAUCACCCAUGUCAAAACAUAU [Eternabot (L1) Solution 97] (Eterna round: R97, puzzle: Exclusion 6)”, the “apparent KD of MS2 coat protein” value reads like this: (input ligand: FMN 200 uM) 29 nM; (input ligand: none) 28.4 nM.

Turning to “CGCUGGUGAGGAUAUGGGUGUUUUUACAUGAGGAUCACCCAUGUGGAGUAGCAUGUGGGUCCAGAAGGCGCGGGUG [-24.2, -22.5 kcal, 20% A] (Eterna round: R97, puzzle: Exclusion 5)”, the “apparent KD of MS2 coat protein” value is, setting by setting: (input ligand: FMN 200 uM) 682 nM; (input ligand: none) 435 nM.

“CGCUGUUGAGGAUAUGGGCGUGGGUACAUGAGGAUCACCCAUGUGUUGUCGCGCGUGGGUCUAGAAGGCGGCGGUG [-29.1, -27.2 kcal, 16% A] (Eterna round: R97, puzzle: Exclusion 5)”: the “apparent KD of MS2 coat protein” value came to 12.1 nM (input ligand: FMN 200 uM) and 13.8 nM (input ligand: none).

Turning to “CGGAGCGUAGGUAGGUUCAACAUGAGGAUCACCCAUGUCUCACAAGCUUUUUGCUCAUCUUAUUGUACCUUGGUGCU [Sensor v3, turn-off variant 1 (MOD of JL )] (puzzle: Sensor v3, turn-off variant 1)”, the “apparent KD of MS2 coat protein” value under setting [3] was 117 nM, the “apparent KD of MS2 coat protein” value under setting [2] turned out to be 37.3 nM and the “apparent KD of MS2 coat protein” value under setting [4] stood at 144 nM.

In the case of “CGGGAGGGACAAGCUUUUUGCACGUCUGUUAUUGAUGCUACAUGAGGAUCACCCAUGUUUAGGGUGUGUGAGGAUGG [JR_SV3TOV2_Sub052] (puzzle: Sensor v3, turn-off variant 2)”, the “apparent KD of MS2 coat protein” value under setting [3] was 437 nM, the “apparent KD of MS2 coat protein” value under setting [2] was 239 nM and the “apparent KD of MS2 coat protein” value under setting [4] worked out at 571 nM.

With “CGGGCCCGGGCAGGAUAUGCGGCGGCCCGGGCCGGUGGGCCCGGGCCGACAUGAGGAUCACCCAUGUAGAAGGGCCCGGGCCCG [low energy, MS2 in another position, A 14%] (Eterna round: R96, puzzle: Exclusion NG 2)”, the “apparent KD of MS2 coat protein” value came out at 15.7 nM (input ligand: FMN 200 uM), 10.7 nM under setting [1] and 16.1 nM (input ligand: none).

In the case of “CGGUGCUGAGGAUAUACAUGAGGAUCACCCAUGUGUUCUUGCUAGCGUACUGGCAGAUGUAGAAGGCGGUACUG [JL-ex3-3.45 Brourd mod] (puzzle: Exclusion 3)”, the “apparent KD of MS2 coat protein” value by setting is: under setting [3], 99.7 nM; under setting [2], 19.7 nM; under setting [4], 22.7 nM.

As for “CGGUGUAACGUAGGAUAUCAUCGCAACUGACGUUGAGAAGGACGACAUGAGGAUCACCCAUGUGAUUUCUCAAUAUUAUACAUC [Prohibition 85 - Jieux - Exclusion NG 1] (Eterna round: R96, puzzle: Exclusion NG 1)”, the “apparent KD of MS2 coat protein” value by setting is: (input ligand: FMN 200 uM) 69.6 nM; under setting [1], 20.4 nM; (input ligand: none) 19.6 nM.

Regarding “CGUACUCAAGUGAGGAUAUUGUCUCGGAUACGAAACAAGAAGGCACAUGAGGAUCACCCAUGUAGAGAGUACGA [Malc #30 mod 1] (puzzle: Brourd's mod of Exclusion 4)”, the “apparent KD of MS2 coat protein” value under setting [2] came to 14.5 nM.

For “CGUCAACAUGAGGAUCACCCAUGUUAGGAUAUGGCGGUCCAUGGUUGGGACUAGACCGCCAGAAGGAGCAUGCG [Eternabot (L1) Solution 54] (Eterna round: R97, puzzle: Exclusion 1)”, the “apparent KD of MS2 coat protein” value reads like this: (input ligand: FMN 200 uM) 71.9 nM; (input ligand: none) 86.8 nM.

Turning to “CGUCCUGUAGUGAGGAUAUUGUCUCGGAUACGAAACAAGAAGGCACAUGAGGAUCACCCAUGUAAUCAGGACGA [Malc #30 mod 12] (puzzle: Brourd's mod of Exclusion 4)”, the “apparent KD of MS2 coat protein” value amounted to 14.1 nM under setting [3], 16.1 nM under setting [2] and 13.3 nM under setting [4].

“CGUCUGUAAGGAUAUGGUUGCAUCAACAUGAGGAUCACCCAUGUAACUUGGGACUAGUGAUUAGAAGGUACGAACG [EX5 #59] (Eterna round: R97, puzzle: Exclusion 5)”: the “apparent KD of MS2 coat protein” value is, setting by setting: (input ligand: FMN 200 uM) 218 nM; (input ligand: none) 255 nM.

As for “CGUCUGUCGGAAGGAUAUGUAGGGUGUCUUUUCCUCAGUACGAAGUACAUGAGGAUCACCCAUGUACAGAAGGUCCACAAUUAA [Essosoedso] (Eterna round: R96, puzzle: Exclusion NG 2)”, the “apparent KD of MS2 coat protein” value (input ligand: FMN 200 uM) was 109 nM, the “apparent KD of MS2 coat protein” value under setting [1] worked out at 67.9 nM and the “apparent KD of MS2 coat protein” value (input ligand: none) stood at 75.3 nM.

As for “CGUGACUCAGGAUAUGUAUUAUAUCACAUGAGGAUCACCCAUGUCCAGCGAAAGCUGGAGGCAGAAGGGAGUCACG [Fiskers Ex 5 - 47] (puzzle: Exclusion 5)”, the “apparent KD of MS2 coat protein” value came to 41.4 nM under setting [3], 87.6 nM under setting [2] and 106 nM under setting [4].

Consider “CUAAAUCAUGUAGGAUAUGCGUAGCGAAGCUAUGCAGAAGGACAUGAGGAUCACCCAUGUUCUUCCGUCUGCGUACAGACGGAA [Mat - Exclusion NG 1 - Mod of JL - D29] (Eterna round: R96, puzzle: Exclusion NG 1)”, for which the “apparent KD of MS2 coat protein” value by setting is: (input ligand: FMN 200 uM) 337 nM; under setting [1], 29.1 nM; (input ligand: none) 38.2 nM.

“CUAAAUCAUGUAGGAUAUGCGUGGCAAAGCUAUGCAGAAGGACAUGAGGAUCACCCAUGUCAUUCCGUCUGCGAACAGACGGGA [Mat - Exclusion NG 1 - Mod of JL - D50] (Eterna round: R96, puzzle: Exclusion NG 1)”: the “apparent KD of MS2 coat protein” value is, setting by setting: (input ligand: FMN 200 uM) 161 nM; under setting [1], 15.4 nM; (input ligand: none) 20.3 nM.

The values above are taken from the supplement of paper PMC9170038.
